Assay results taken from US20230121197A1, “ANTIBODIES SPECIFICALLY BINDING THE CARBOXYMETHYLATED CATALYTIC SUBUNIT OF PROTEIN PHOSPHATASE 2A” (Medizinische Universität Wien, priority 2020, published 2023).
Each block holds one molecule with its values, some of them ahead of it.

Key:
[1] = molecular target: PP2Ac C-terminal peptide L309, ac-…-OH (unmodified) (human); experiment: ELISA, peptide coated at 2 µg/ml, antibody 1 µg/ml
[2] = molecular target: PP2Ac C-terminal peptide meL309, ac-…-CH3 (α-carboxymethylated) (human); experiment: ELISA, peptide coated at 2 µg/ml, antibody 1 µg/ml, values normalized to L309, N=6
[3] = molecular target: PP2Ac C-terminal peptide pT304-L309, ac-HVTRRpTPDYFL-OH (human); experiment: as above
[4] = molecular target: PP2Ac C-terminal peptide pT304-meL309, ac-HVTRRpTPDYFL-CH3 (human); experiment: as above
[5] = molecular target: PP2Ac C-terminal peptide pY307-meL309, ac-HVTRRTPDpYFL-CH3 (human); experiment: as above
[6] = molecular target: PP2Ac C-terminal peptide meL309, ac-…-CH3 (α-carboxymethylated) (human); experiment: ELISA, peptide coated at 2 µg/ml, antibody 1 µg/ml, normalized, N=3
[7] = molecular target: PP2Ac C-terminal peptide pY307-meL309, ac-HVTRRTPDpYFL-CH3 (human); experiment: as above
[8] = molecular target: PP2Ac C-terminal peptide meL309, ac-…-CH3 (α-carboxymethylated) (human); experiment: ELISA, peptide coated at 2 µg/ml, antibody 1 µg/ml, normalized, N=4
[9] = molecular target: PP2Ac C-terminal peptide pT304-meL309, ac-HVTRRpTPDYFL-CH3 (human); experiment: as above
[10] = molecular target: PP2Ac C-terminal peptide pY307-meL309, ac-HVTRRTPDpYFL-CH3 (human); experiment: ELISA, 4-fold dilution series of coated peptide, normalized, N=3
c-MYC = experiment: H358 xenograft tumors, single dose DT-061 time-course: c-MYC IHC; format: in vivo, Balb/c nu/nu mice; conditions: single dose DT-061
[11] = mouse, in vivo, 5 mg/kg
[12] = test system: α-carboxymethylation of PP2Ac; experiment: H358 xenograft tumors, single dose DT-061 time-course: methyl-PP2Ac by IHC and western blot with 7C10-C5; format: in vivo, Balb/c nu/nu mice
Experimental: Next, the immunohistochemical analysis of xenograft tumors was performed. In brief, five micron sections from formalin-fixed paraffin-embedded (FFPE) specimens were deparaffinized in Histo-Clear and ethanol, exposed to 0.3% hydrogen peroxide to block endogenous peroxidase activity, and incubated for antigen retrieval with a citrate-based antigen unmasking solution (H-3300, Vector Laboratories) in a pressure cooker. Tumor sections were blocked with Mouse Ig Blocking Reagent (BMK-2202, Vector Laboratories), and incubated with anti-carboxymethyl PP2Ac specific antibody (7C10-C5) or an antibody recognizing total PP2Ac (ab106262) at 4° C. for two nights. Washes were performed in PBS. Slides were subsequently developed using secondary anti-mouse immunoglobulins/HRP (K1497, Agilent), DAB peroxidase substrate as the chromagen, and hematoxylin for counterstaining nuclei. Slides were sealed, and randomized for subsequent blinded review. Two independent researchers scored the level of carboxymethylated PP2Ac staining (with 7C10-C5) in one section per tumor (min. 6 tumors per treatment/control group). […] Scores from 0-2 are considered low staining, 2-4 as moderate, and 4-6 as high intensity staining. Based on these scores the data was plotted as the percentage of slides from each time point that fell into each group (FIG. 14I).

[13] = molecular target: T1, C-terminal PP2Ac peptides L309, Y307F, pY307, meL309 (Homo sapiens, UniProt P67775); experiment: ELISA with CGEPHVTRRTPDYFL peptides free or linked to BSA (scFv and recombinant 7C10-C5); format: binding; conditions: for recognition of meL309 versus non-carboxymethylated peptides: peptides free or linked to BSA
T1 construct: coated with C-terminal PP2Ac peptides either free or linked to BSA; BSA (carrier)
Experimental: Nunc Medisorp 96-well ELISA flat-bottom plates were coated with C-terminal PP2Ac peptides either free or linked to BSA. Specifically, the peptides were: unmodified L309 (CGEPHVTRRTPDYFL) (SEQ ID NO:49), Y307F (CGEPHVTRRTPDFFL) (SEQ ID NO:50), pY307 (CGEPHVTRRTPDpYFL) (SEQ ID NO:51) or carboxymethylated meL309 (CGEPHVTRRTPDYFL-CH3) (SEQ ID NO:49), on the ELISA plate at 8 μg/ml in TBS (free) or 1 μg/ml in TBS (linked to BSA) at 4° C. overnight. After washing twice with TBS, the wells were incubated with 2% BSA in TBS for 1 h at RT. After washing once with TBS, the wells were incubated with single clone hybridoma cell culture supernatant, clone 7C10-C5 1:50 (7C10 X63), recombinant single chain variable fragment of antibody 7C10-C5, undiluted (7C10 scFvs), or recombinant bivalent single chain variable fragment of antibody 7C10-C5, undiluted (7C10 bi-scFvs). After washing 3× with TBS, wells incubated with recombinant antibodies were incubated with monoclonal antibody 16B12, 1:10000 (recognizing the hemagglutinin tag on the recombinant antibody) in 1% BSA TBS 1 h at room temperature. After washing 3× in TBS, incubation with anti-mouse-HRP coupled secondary antibody for 1 h at RT was performed. Bound antibodies were detected by colorimetric reaction with 3,3′,5,5′-Tetramethylbenzidine as substrate, and absorbance was measured at 450 nm. Values were normalized to meL309 which was arbitrarily set to 1. Average and standard deviation of N=3 experiments are shown.
Nunc Medisorp 96-well ELISA flat-bottom plates were coated with peptides either free or linked to BSA, L309 (CGEPHVTRRTPDYFL) (SEQ ID NO:49) or meL309 (CGEPHVTRRTPDYFL-CH3) (SEQ ID NO:49), on the ELISA plate at 0.5 μg/ml in TBS (free) or […] in TBS (linked to BSA) at 4° C. over night. After washing twice with TBS, the wells were incubated with 2% BSA in TBS for 1 h at RT. After washing once with TBS, the wells were incubated with single clone hybridoma cell culture supernatant, clone 7C10-C5 1:50 (7C10 X63), or recombinant antibody 7C10-C5 undiluted (rec 7C10). After washing 3× with TBS, incubation with anti-mouse-HRP coupled secondary antibody for 1 h at RT was performed. Bound antibodies were detected by colorimetric reaction with 3,3′,5,5′-Tetramethylbenzidine as substrate, and absorbance was measured at 450 nm. Values were normalized to meL309 incubated with 7C10 X63, which was arbitrarily set to 1. Average and standard deviation of N=3 experiments are shown (FIG. 30).

[14] = molecular target: PP2Ac peptides L309, Y307F, pY307, meL309 crosslinked to BSA (Homo sapiens, UniProt P67775); experiment: Western blot of BSA crosslinked PP2Ac peptides (scFv 7C10-C5); format: binding; conditions: 100 ng BSA crosslinked peptides
Experimental: 100 ng of BSA crosslinked with peptides (L309: CGEPHVTRRTPDYFL (SEQ ID NO:49), Y307F: CGEPHVTRRTPDFFL (SEQ ID NO.50), pY307: CGEPHVTRRTPDpYFL (SEQ ID NO:51) or meL309: CGEPHVTRRTPDYFL-CH3) (SEQ ID NO:49) was separated by 10% SDS-PAGE and transferred to nitrocellulose membrane (0.2 μm, GE Healthcare). Of note, the Y307F peptide cannot be phosphorylated at position 307 due to the presence of a phenylalanine. The membranes were blocked in 3% non-fatty dry milk (NFDM) in TBS-Tween for 1 h at RT and incubated with single clone hybridoma cell culture supernatant, clone 7C10-C5 diluted 1:100 in 0.5% NFDM in TBS-T (7C10 X63), recombinant single chain variable fragment of antibody 7C10-C5, undiluted (7C10 scFvs), recombinant bivalent single chain variable fragment 7C10-C5, undiluted (7C10 bi-scFvs) or single clone hybridoma cell culture supernatant, clone 1D7 (binding to non-carboxymethylated PP2Ac) 1:100 in 0.5% NFDM in TBS-T o/n at 4° C. After washing 3×5 min in TBS-T, blots incubated with recombinant antibodies were incubated with mouse anti-HA monoclonal antibody 16B12 (recognizing the hemagglutinin (HA) tag on the recombinant antibody), 1:10000 in 0.5% NFDM in TBS-T 2 h at room temperature. After washing 3×5 min in TBS-T, incubation with anti-mouse-HRP coupled secondary antibody for 1 h at RT and 3×10 min washes in TBS-T was performed. […] Signals were detected by exposure of X-ray films. […]

B1: bivalent scFv 7C10-C5: recombinant bivalent single chain variable fragment of antibody 7C10-C5 (SEQ ID NO:44) (protein)
scFv: MDMRVPAQLLGLLLLWLSGARCDVLMTQTPLSLPVSLGDQASISCRSSQSIVHSNGNTYLEWYLQKPGQSPKLLIYKVSNRFSGVPDRFSGSGSGTDFTLKINRVEAEDLGVYYCFQGSHVPWTFGGGTKLEIKSSGGGGSGGGGGGSSRSSLDVQLQESGPGLVKPSQSLSLTCSVTGYSITSGYYWNWIRQFPGNKLEWMGYISYDGSNNYNPSLKNRISITRDTSKNQFFLKLNSVTTEDTATYYCAGRFAYWGQGTLVTVSAAKTTPPSVGSGSGSGSGSGSGSGSGSGSGSGSGSGSGSDVLMTQTPLSLPVSLGDQASISCRSSQSIVHSNGNTYLEWYLQKPGQSPKLLIYKVSNRFSGVPDRFSGSGSGTDFTLKINRVEAEDLGVYYCFQGSHVPWTFGGGTKLEIKSSGGGGSGGGGGGSSRSSLDVQLQESGPGLVKPSQSLSLTCSVTGYSITSGYYWNWIRQFPGNKLEWMGYISYDGSNNYNPSLKNRISITRDTSKNQFFLKLNSVTTEDTATYYCAGRFAYWGQGTLVTVSAAKTTPPSVTSGQAGQHHHHHHGAYPYDVPDYAS
modifications: recombinant bivalent scFv antibody
binding to meL309 peptide, bivalent versus monovalent scFv [13]: bound stronger to the meL309 peptide than the monovalent scFv | recognition of meL309 versus non-carboxymethylated peptides [13]: specifically recognized the carboxymethylated meL309 peptide, but none of the non-carboxymethylated peptides | recognition of meL309 versus non-carboxymethylated peptides [14]: specifically recognized the carboxymethylated meL309 peptide, but none of the non-carboxymethylated peptides

B2: monovalent scFv 7C10-C5: recombinant monovalent single chain variable fragment of antibody 7C10-C5 (SEQ ID NO:42) (protein)
scFv: MDMRVPAQLLGLLLLWLSGARCDVLMTQTPLSLPVSLGDQASISCRSSQSIVHSNGNTYLEWYLQKPGQSPKLLIYKVSNRFSGVPDRFSGSGSGTDFTLKINRVEAEDLGVYYCFQGSHVPWTFGGGTKLEIKSSGGGGSGGGGGGSSRSSLDVQLQESGPGLVKPSQSLSLTCSVTGYSITSGYYWNWIRQFPGNKLEWMGYISYDGSNNYNPSLKNRISITRDTSKNQFFLKLNSVTTEDTATYYCAGRFAYWGQGTLVTVSAAKTTPPSVTSGQAGQHHHHHHGAYPYDVPDYAS
modifications: recombinant monovalent scFv antibody
recognition of meL309 versus non-carboxymethylated peptides [13]: specifically recognized the carboxymethylated meL309 peptide, but none of the non-carboxymethylated peptides | recognition of meL309 versus non-carboxymethylated peptides [14]: specifically recognized the carboxymethylated meL309 peptide, but none of the non-carboxymethylated peptides

Continued, in another order:

fold higher ELISA signal intensity than with the α-carboxymethylated counterpart (meL309) [1]: 8 fold | fold-change of ELISA signal, L309 over meL309 [2]: 8.27 fold | fold-change of ELISA signal, L309 over pT304-L309 [3]: 1.75 fold | fold-change of ELISA signal, pT304-L309 over pT304-meL309 [4]: 7.39 fold | fold-change of ELISA signal, pY307-L309 over pY307-meL309 [5]: 8.27 fold
Molecule: mouse monoclonal antibody 4B7 (SCBT, sc-13601, lot 0716)

fold-change of ELISA signal, L309 over meL309 [6]: 8.2 fold | fold-change of ELISA signal, pY307-L309 over pY307-meL309 [7]: 2.5 fold | fold-change of ELISA signal, pY307-meL309 over meL309 [7]: 3.36 fold | fold higher ELISA signal intensity than with the α-carboxymethylated counterpart (meL309) [1]: 4.7 to 8.2 fold | fold-change of ELISA signal, L309 over meL309 [8]: 4.65 fold | fold-change of ELISA signal, L309 over pT304-meL309 [9]: 50 fold | fold-change of ELISA signal, meL309 over pT304-meL309 [9]: 10.7 fold | fold-change of ELISA signal, pT304-L309 over pT304-meL309 [9]: 36.1 fold | EC50 (read off the curve) [10]: 0.3 µg/mL
Molecule: rabbit monoclonal antibody E155 (Abcam #ab32104 lot GR17965-24)

half-life obtained from serum [11]: 6.3 h
Molecule: O=S(=O)(N[C@@H]1CCC[C@H](N2c3ccccc3Oc3ccccc32)[C@H]1O)c1ccc(OC(F)(F)F)cc1 [DT-061]
return of c-MYC to basal levels (c-MYC): ≤ 6 h | c-MYC in xenograft tumors after treatment (c-MYC; IHC): significant decrease of c-MYC at early time points (one, two, and three hours) | return of α-carboxymethylated PP2Ac to basal levels post treatment ([12]; single dose DT-061): ≤ 12 h | α-carboxymethylated PP2Ac in xenograft tumors after treatment ([12]; single dose DT-061 (5 mg/kg), IHC with 7C10-C5): increase in α-carboxymethylated PP2Ac at early time points (one, two, and three hours)
